Source: patent US20220153832A1 (PIONYR IMMUNOTHERAPEUTICS, published 2022)

Columns and labels:
[1] = biological target: T1, Mouse MARCO, full length, on cells (mouse, UniProt Q60754 1-518); assay: flow cytometry, 293T cells expressing mouse MARCO
T1 construct: whole, on cells; the cell type is named under assay; also called muMARCO; MuMARCO
T1 sequence (looked up): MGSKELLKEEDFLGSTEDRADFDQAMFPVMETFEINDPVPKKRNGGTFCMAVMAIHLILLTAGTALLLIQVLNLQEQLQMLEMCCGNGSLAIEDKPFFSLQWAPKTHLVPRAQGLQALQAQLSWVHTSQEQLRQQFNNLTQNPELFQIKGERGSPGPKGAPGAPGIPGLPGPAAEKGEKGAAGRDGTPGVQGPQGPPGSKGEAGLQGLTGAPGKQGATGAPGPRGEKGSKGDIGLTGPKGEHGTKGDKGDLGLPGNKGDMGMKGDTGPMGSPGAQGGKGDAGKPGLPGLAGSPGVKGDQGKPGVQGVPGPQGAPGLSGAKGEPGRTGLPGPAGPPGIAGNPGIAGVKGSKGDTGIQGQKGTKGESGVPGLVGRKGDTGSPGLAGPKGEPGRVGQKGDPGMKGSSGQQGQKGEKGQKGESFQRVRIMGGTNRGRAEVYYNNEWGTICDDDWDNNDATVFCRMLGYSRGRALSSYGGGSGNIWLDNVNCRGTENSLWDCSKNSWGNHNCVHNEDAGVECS
Experimental: Supernatants were removed and cell pellets were resuspended in Ca²⁺+ and Mg²⁺+ Dulbecco's phosphate-buffered saline (D-PBS) at 1×10⁶ cells/ml. 100,000 cells/well were plated onto U-bottom 96-well plates for staining and all centrifugation steps were performed at 1500 rpm at 4° C. for 5 min and samples were kept protected from light throughout the protocol. Cells were pelleted and resuspended in 100 μl of Zombie NIR viability dye (BioLegend) prepared by diluting Zombie NIR dimethyl sulfoxide (DMSO) stock 1000-fold in D-PBS. […] Flow cytometry data were analyzed using FlowJo software (version 10.6.1) and data were processed and further analyzed in Microsoft Excel and GraphPad Prism software (version 8). Half-maximal effective concentrations (EC₅₀) were calculated based on geometric mean fluorescence intensities (gMFI). In case when the plates were not able to be analyzed on the cytometer, cells were pelleted after the washes and fixed in 100 μl of 2% paraformaldehyde (PFA), prepared by diluting the 16% (w/v) stock (Thermo Fisher) in DPBS, for 15 min at RT. […]

[2] = biological target: T2, mouse MARCO (R&D biosystems), recombinant, coated in the LDL competition assay (mouse, UniProt Q60754 70-518, limits assumed); assay: LDL competition on coated mouse MARCO (MSD), competitor biotinylated hLDL
T2 sequence (looked up): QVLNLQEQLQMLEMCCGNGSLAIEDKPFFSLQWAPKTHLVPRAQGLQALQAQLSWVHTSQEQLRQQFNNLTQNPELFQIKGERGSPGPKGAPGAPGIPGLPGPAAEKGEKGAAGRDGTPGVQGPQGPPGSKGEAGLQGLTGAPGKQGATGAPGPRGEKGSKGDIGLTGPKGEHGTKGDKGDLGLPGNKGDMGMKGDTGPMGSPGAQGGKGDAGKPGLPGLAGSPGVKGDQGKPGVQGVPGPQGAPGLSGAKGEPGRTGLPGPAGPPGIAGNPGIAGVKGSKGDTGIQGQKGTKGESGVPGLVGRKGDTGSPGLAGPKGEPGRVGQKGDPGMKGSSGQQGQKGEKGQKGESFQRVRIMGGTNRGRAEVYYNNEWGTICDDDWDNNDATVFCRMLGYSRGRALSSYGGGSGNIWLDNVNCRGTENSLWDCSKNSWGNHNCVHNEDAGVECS
Experimental: A high-binding, 96-well MSD plate was coated with 4 μg/ml mouse MARCO or 4 μg/ml human MARCO (R&D biosystems). After the plate was blocked with PBST and 5% BSA for an hour, titrated anti-mouse or anti-human MARCO antibodies were added to the plate and incubated for 30 minutes. Biotinylated hLDL (860 pM or 2 μg/ml) were added to the antibody, and the antibody/LDL mixture was incubated for an hour to allow the mixture to reach binding equilibrium. The plates were washed and bound biotinylated LDL was detected with Sulfo-tagged streptavidin that generates an electrocheminlumenscent signal when read buffer is added and electricity is applied to the electrodes in the MSD plate. IC50's were calculated using a 4-parameter curve fit in GraphPad Prism software.

B1: PI-HX-3021 (antibody, V domains shown)
VH: QVRLVQSGTALVRPGASVRMSCTASGYSFTDYWVSWVKQSHGQSLEWIGEIYPNSGTTNFNEKFEGKATLTVDKSTSTAYMELSRLTSEDSAIYYCTGEGTFDYWGQGVMVTVSS
VL: EIVLTQSPTTMAASPGEKVTITCRPSSSLSNMHWFQQKSGTSPKPWIYDTSKLASGVPDRFSGSGSGTSYSLTISSMEAEDAATYYCLQRSSYPPTFGAGTKLELK
notes: Rat IgG2a hybridoma antibody; Not the effector dead PI-3021; also called PI-3007 (name of the recombinant form)
EC50 [1]: 0.47 to 0.75 nM | EC50 [2]: 0.25 nM

B2: PI-HX-3016 (antibody, rat IgG1, V domains shown)
VH: EVQLVESGGGLVKPGASLKLSCVASGFTFSDDWMNWVRQTPGKAMEWIGDIKYDGSYTNYVPSLKNRLTISRDNAKNTLYLQMTNVRSEDTATYYCTSGGVFDYWGQGVMVTVSS
VL: EIVLSQSPTTMAASPGEKVTITCRASSSVSYMHWFQQKSGTSPKPWIYDTSKLASGVPDRFSGSGSGTSYSLTISSMEAEDAATYYCLQRSGYPPTFGAGTKLEVK
notes: Rat IgG1 hybridoma antibody
EC50 [1]: 0.36 to 0.59 nM | EC50 [2]: 0.34 nM
